Measurements taken from patent US7205387B2, “Recombinant polypeptide useful for neurotrophin receptor mediated gene delivery and as neurotrophin agonist” (Agency for Science, Technology and Research, priority 2003, dated 2007).

Tests used:
[1] = test system: COS7 (neurotrophin receptor negative) cells; test: Gene delivery in vitro (pCAGluc luciferase reporter), COS7 cells; format: cell-based, African green monkey; conditions: triple complexes with protamine, 0.1 μg pCAGluc/well
Description: (§1) A PC12 (rat pheochromocytoma) cell line was obtained from ATCC (American Type Culture Collection, Manassas, Va., USA) and cultured in RPMI-1640 medium supplemented with 10% fetal bovine serum (FBS) and 5% horse serum. PC12 cells are known to express TrkA and p75^NTR receptors. A COS7 (African green monkey kidney fibroblast) cell line was obtained from ATCC and cultured in Dulbecco's modified Eagle's medium (DMEM) supplemented with 10% fetal bovine serum, 50 U/ml penicillin, and 50 μg/ml streptomycin. The cells were maintained in a 37° C., 5% CO2, humidified incubator.
(§2) To determine the transfection efficiencies of our nucleic acid delivery systems, we employ a reporter plasmid, pCAGluc (a gift from Yoshiharu Matsuura, National Institute of Infectious Diseases, Tokyo, Japan), encoding firefly luciferase under the control of the composite promoter, CAG. CAG comprises the chicken β-actin promoter and the cytomegalovirus immediate early enhancer.
TrkA-targeting gene delivery complexes were tested for transfection efficiency in vitro in PC12 (TrkA and p75^NTR positive) cells and COS7 (neurotrophin receptor negative) cells. […]
One to two days after transfection, the cell culture medium was removed and the cells were rinsed in phosphate-buffered saline (PBS). […] The total protein concentration of each lysate was determined using the DC Protein assay (Bio-Rad, Hercules, Calif., USA). […]

[2] = test system: PC12 (TrkA and p75^NTR positive) cells; test: Gene delivery in vitro (pCAGluc luciferase reporter), PC12 cells; format: cell-based, rat
Description: as §1, §2
TrkA-targeting gene delivery complexes were tested for transfection efficiency in vitro in PC12 (TrkA and p75^NTR positive) cells and COS7 (neurotrophin receptor negative) cells. The cells were grown to 50–70% confluency in microplate wells (24-, 48-, or 96-well plates). The gene delivery complexes were prepared according to specifications presented for each example. Transfection was accomplished by replacing the serum-enriched medium with half the usual volume of reduced-serum medium, Opti-MEM (Invitrogen), containing the gene delivery complexes. Where specifically mentioned, 100 μM of chloroquine was also added to help the complexes escape from endosomes. After four hours of incubation, the cells were restored to the normal medium volume and serum concentration, either by topping up with medium containing twice the usual serum concentration (RPMI-1640 with 20% FBS and 10% horse serum for PC12) or by completely replacing the medium.
One to two days after transfection, the cell culture medium was removed and the cells were rinsed in phosphate-buffered saline (PBS). Enough Reporter Lysis Buffer (Promega, Wisconsin, Md., USA) to cover the bottom surface was added to each well (50 μl/well for 48-well plates). After one freeze-thaw cycle, the lysates were tested for luciferase activity using the Luciferase Assay System (Promega) and a single-tube luminometer (Berthold Lumat L B 9507, Bad Wildbad, Germany). The total protein concentration of each lysate was determined using the DC Protein assay (Bio-Rad, Hercules, Calif., USA). The results were expressed in relative light units (RLU) per milligram of total protein.

plasmid DNA = test: DNA retardation assay (agarose gel electrophoresis); format: binding
Description: This assay qualitatively assesses the ability of a polypeptide or polycation to bind to DNA and thus to retard its migration (by decreasing its charge/mass ratio) through an agarose gel under electrophoresis. For a range of N/P ratios, polypeptide was added to 0.1 μg of plasmid DNA made up to 20 μl with either HEPES-buffered saline (HBS, 150 mM NaCl, 29 mM HEPES, pH 7.3) or 5% glucose. The mixtures were vortexed and incubated at room temperature for 30 minutes before being subjected to electrophoresis in a 0.8–1.0% Tris-borate-EDTA agarose gel stained with ethidium bromide for visualization under ultraviolet light.

[3] = triple complexes with protamine (2 μg per μg DNA), 0.1 μg pCAGluc/well

B1: DsbC-NL4-10K: chimeric recombinant protein: NL4-10K attached to the C-terminus of DsbC, an E. coli disulfide bond isomerase (protein)
chain: MKKGFMLFTLLAAFSGFAQADDAAIQQTLAKMGIKSSDIQPAPVAGMKTVLTNSGVLYITDDGKHIIQGPMYDVSGTAPVNVTNKMLLKQLNALEKEMIVYKAPQEKHVITVFTDITCGYCHKLHEQMADYNALGITVRYLAFPRQGLDSDAEKEMKAIWCAKDKNKAFDDVMAGKSVAPASCDVDIADHYALGVQLGVSGTPAVVLSNGTLVPGYQPPKEMKEFLDEHQKMTSGKGSTSGSGHHHHHHSAGLVPRGSCTTTHTFVKALTMDGKQAAWRFIRIDTACKKKKKKKKKK
modifications: DsbC-NL4-10K
notes: chimeric recombinant protein: NL4-10K attached to the C-terminus of DsbC, an E. coli disulfide bond isomerase
[1]
  effect on protamine-mediated gene delivery: did not improve gene delivery
[2]; 30 minutes before transfection, compared to bovine serum albumin pre-treatment
  effect of pre-treatment with free protein on DsbC-NL4-10K/DNA/PEI600 transfection: greatly reduced the transfection efficiency
[2]; [3]
  N/P ratio of maximum transfection efficiency: 1 N/P ratio
  protein/DNA ratio of maximum transfection efficiency: 0.3 nmol/µg
Plasmid DNA
  DNA binding / retardation of DNA migration (in words): binds to DNA but cannot fully condense it
